Data: US12624112 (MABWELL SHANGHAI BIOSCIENCE, dated 2026)

How the values were obtained:
[1] = biological target: T1, ST2 on the effector cells (KU812, KU812/NF-κB-1#, HUVEC, HMC-1) (human, UniProt Q01638 19-556); experiment: cell-based or functional assay
T1 sequence (looked up): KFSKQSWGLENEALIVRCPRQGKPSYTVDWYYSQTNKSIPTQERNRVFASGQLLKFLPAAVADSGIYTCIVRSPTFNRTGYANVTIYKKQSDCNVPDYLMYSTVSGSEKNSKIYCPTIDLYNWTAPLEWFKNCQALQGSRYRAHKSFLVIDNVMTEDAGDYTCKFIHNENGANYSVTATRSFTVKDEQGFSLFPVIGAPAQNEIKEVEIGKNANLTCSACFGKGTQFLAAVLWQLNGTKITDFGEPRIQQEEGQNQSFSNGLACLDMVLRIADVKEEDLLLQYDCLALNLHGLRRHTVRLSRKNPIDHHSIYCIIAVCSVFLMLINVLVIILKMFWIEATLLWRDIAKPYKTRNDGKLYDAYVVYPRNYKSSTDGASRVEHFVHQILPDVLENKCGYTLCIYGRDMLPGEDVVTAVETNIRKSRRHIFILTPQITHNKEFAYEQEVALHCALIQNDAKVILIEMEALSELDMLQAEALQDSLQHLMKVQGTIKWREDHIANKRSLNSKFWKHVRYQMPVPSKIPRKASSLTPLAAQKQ

[2] = biological target: T1, ST2 on the effector cells (KU812, …); experiment: cell-based or functional assay; remark: listed apart in the source
[3] = biological target: T1, ST2 on the effector cells (KU812, …); experiment: cell-based or functional assay; remark: listed apart in the source
[4] = biological target: T1, ST2 on the effector cells (KU812, …); experiment: cell-based or functional assay; remark: listed apart in the source
[5] = biological target: T1, ST2 on the effector cells (KU812, …); experiment: cell-based or functional assay; remark: listed apart in the source
[6] = biological target: T1, ST2 on the effector cells (KU812, …); experiment: cell-based or functional assay; remark: listed apart in the source
[7] = biological target: T2, Human ST2-his (human, UniProt Q01638-2 19-328, limits assumed); experiment: SPR Biacore X100, ratio of kd at pH 5.5 to kd at pH 7.4
T2 construct: Expressed in CHO-K1; The printed range starts at Met1; also called human ST2 fused with a 6-histidine tag at the C-terminus
T2 sequence: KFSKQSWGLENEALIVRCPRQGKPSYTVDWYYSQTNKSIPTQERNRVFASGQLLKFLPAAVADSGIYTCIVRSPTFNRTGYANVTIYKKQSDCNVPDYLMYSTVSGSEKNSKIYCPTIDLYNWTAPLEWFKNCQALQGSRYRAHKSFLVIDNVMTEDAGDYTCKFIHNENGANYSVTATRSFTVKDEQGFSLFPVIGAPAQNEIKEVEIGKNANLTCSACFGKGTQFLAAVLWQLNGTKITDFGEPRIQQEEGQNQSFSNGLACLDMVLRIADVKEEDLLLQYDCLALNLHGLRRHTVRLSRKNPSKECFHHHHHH
Summary of the method: (§1)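 Antibody (2 µg/mL) captured 60 s on protein A; human ST2-his injected at six 2-fold dilutions from 20 nM, association 180 s, dissociation 700 s. Kinetics fitted to 1:1 binding model; glycine pH 2.0 regeneration.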

[8] = biological target: T2, Human ST2-his; experiment: SPR Biacore X100, antibody captured on protein A chip, human ST2-his injected, pH 7.4
Summary of the method: as §1

[9] = biological target: T2, Human ST2-his; experiment: SPR Biacore X100, antibody captured on protein A chip, human ST2-his injected, pH 7.4; pH 7.4
Description: The experiment on the interaction between the anti-human ST2 antibodies and human ST2-his was performed using Biacore X100.
Each anti-human ST2 antibody was diluted to 2 µg/mL and captured on the surface of a protein A chip for a capture time of 60 s. Following the antibody capture, a solution of human ST2-his (2-fold gradient dilution from a starting concentration of 20 nM, to obtain 6 concentrations in total) was injected. Association was monitored for 180 s and dissociation was monitored for 700 s, and the sensor surface was regenerated by injecting a solution of glycine at pH 2.0. Kinetic data were analyzed using a simple 1:1 binding model.

[10] = biological target: T2, Human ST2-his; experiment: SPR Biacore X100, antibody captured on protein A chip, human ST2-his injected, dissociation at pH 5.5
Summary of the method: as §1

Maximum inhibition rate, KU812-IL5 production by IL-33 [1]: 97.5%
IC50, inhibition of activation of KU812-NF-κB reporter gene by IL33 [2]: 0.2 µg/mL
Maximum inhibition rate, KU812-NF-κB reporter gene [2]: 88.2%
IC50, inhibition of KU812-IL5 production promoted by oxidized IL33 [3]: 0.0221 µg/mL
Maximum inhibition rate, KU812-IL5 production by oxidized IL33 [3]: 98.9%
Relative activity, KU812-IL5 production by oxidized IL33 [3]: 100%
IC50, inhibition of KU812-IL5 production promoted by reduced IL33 [4]: 1.47 µg/mL
Maximum inhibition rate, KU812-IL5 production by reduced IL33 [4]: 97.3%
Relative activity, KU812-IL5 production by reduced IL33 [4]: 100%
IC50, inhibition of HUVEC-IL6 production promoted by IL33 [5]: 2.73 µg/mL
Maximum inhibition rate, HUVEC-IL6 production by IL33 [5]: 66.6%
Relative activity, HUVEC-IL6 production by IL33 [5]: 100%
IC50, inhibition of HMC-1 IL8 production promoted by IL33 [6]: 0.101 µg/mL
Maximum inhibition rate, HMC-1 IL8 production by IL33 [6]: 82.3%
kd ratio of pH 5.5/pH 7.4 [7]: 1.53
koff [8]: 0.000175 s⁻¹
kon [8]: 763000 M⁻¹ s⁻¹
Kd [9]: 0.229 nM
Kd [10]: 0.395 nM
koff [10]: 0.000267 s⁻¹
kon [10]: 676000 M⁻¹ s⁻¹
B1: Control antibody CNTO7160 (antibody, human IgG4 S228P, kappa, V domains shown)
VH: EVQLLESGGGLVQPGGSLRLSCAASGFTFSIYDMIWVRQAPGKGLEWVSSIRGEGGGTYYADSVKGRFTISRDNSKNTLYLQMNSLRAEDTAVYYCARDPWSTEGSFFVLDYWGQGTLVTVSS
VL: EIVLTQSPATLSLSPGERATLSCRASQSVDDDLAWYQQKPGQAPRLLIYDASNRATGIPARFSGSGSGTDFTLTISSLEPEDFAVYYCQQYITAPLTFGQGTKVEIKR
notes: Known anti-ST2 control antibody
